According to patent US20040248198A1 (ST JUDE CHILDREN S RESEARCH HOSPITAL, published 2004):
Where no end group is shown, it is not given here.

T1: His-tagged mArfN37 (mouse)
T1 construct: Captured on the SPR chip through a covalently attached Tetra-His antibody; also called His-mArfN37; His-tagged mArf37; not shown: thrombin-cleavable poly-His tag
T1 chain: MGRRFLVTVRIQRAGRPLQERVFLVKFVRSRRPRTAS


Molecular target: T1, His-tagged mArfN37
Assay: SPR (Biacore), His-tagged mArfN37 captured by anti-His antibody, Hdm2 peptide as analyte, reference cell subtracted
Procedure: (§1) Surface Plasmon Resonance. Binding studies were performed using a Biacore 3000 surface plasmon resonance (SPR) instrument (Biacore, Inc.). A Tetra-His™ Antibody (Qiagen, Inc.; Cat. #34670) was covalently attached to a carboxymethylated gold surface (C-1 chip; Biacore, Inc.). The carboxymethyl groups on the surface were activated with N-ethyl-N-(3-dimethylaminopropyl) carbodiimide (EDC) and N-hydroxysuccinimide (NHS) and the antibody was attached at pH 7.4 in 20 mM sodium phosphate buffer, 150 mM NaCl (PBS). Reactive sites remaining on the surface were blocked by reaction with ethanolamine. The His-tagged ligand was attached to the antibody by injecting a […] solution of the ligand in 10 mM HEPES, 150 mM NaCl, pH 7.4 (HBS-N buffer, Biacore) at a flow rate of 10 μL/Min through the flow cell. A reference cell was prepared similarly except that no His-tagged ligand was added. Binding was measured by flowing the non-His-tagged analyte through the reference and ligand-containing flow cells in sequence. Prior to injection of ligands, the chip surfaces were equilibrated in HBS-N buffer. Changes in the SPR response due to solvent differences and the injection process were monitored by injection of HBS-N buffer alone. Regeneration of the chip surface to remove bound analyte and ligand was accomplished by two 100 μL injections of 10 mM glycine, pH 2.0 through both flow cells. Data reported is-the difference in SPR signal between the flow cell containing analyte and the reference cell. Duplicate injections were made and the SPR response values reported are the average of these two injections.
A similar approach using short synthetic peptides and SPR was used to map the segments of Hdm2 that bind mArfN37 (FIG. 5c). […] The first of these as Arf-binding segment is termed “H1” and the second is termed segment “H2”.

Binder | binding result
GQELSDEDDEVYQVT (not fully specified, also called Hdm2 library peptide, residues 265-279) [265-279] | no binding (tested: not given)
EMNPPLPSHCNRCWA (not fully specified; cysteine pairing not given here, also called Hdm2 library peptide, residues 310-324) [310-324] | no binding (tested: not given)
NRCWALRENWLPEDK (not fully specified, also called Hdm2 library peptide, residues 320-334) [320-334] | no binding (tested: not given)
STGTPSNPDLDAGVS (not fully specified, also called Hdm2 library peptide, residues 215-229) [215-229] | no binding (tested: not given)
SNPDLDAGVSEHSGD (not fully specified, also called Hdm2 library peptide, residues 220-234) [220-234] | no binding (tested: not given)
EHSGDWLDQDSVSDQ (not fully specified, also called Hdm2 library peptide, residues 230-244) [230-244] | no binding (tested: not given)
LPEDKGKDKGEISEK (not fully specified, also called Hdm2 library peptide, residues 330-344) [330-344] | no binding (tested: not given)
DSEDYSLSEEGQELS (not fully specified) [255-269] | no binding (tested: not given)
FSVEFEVESLDSEDY (not fully specified) [245-259] | binds
LPSHCNRCWALRENW (not fully specified; cysteine pairing not given here, also called Hdm2 library peptide, residues 315-329) [315-329] | no binding (tested: not given)
SSSSESTGTPSNPDL (not fully specified, also called Hdm2 library peptide, residues 210-224) [210-224] | no binding (tested: not given)
SLSEEGQELSDEDDE (not fully specified, also called Hdm2 library peptide, residues 260-274) [260-274] | no binding (tested: not given)
ESDTDSFEEDPEISL (not fully specified, also called Hdm2 library peptide, residues 285-299) [285-299] | no binding (tested: not given)
WLDQDSVSDQFSVEF (not fully specified) [235-249] | binds
GKDKGEISEKAKLEN (not fully specified) [335-349] | no binding (tested: not given)
PEISLADYWKCTSCN (not fully specified; cysteine pairing not given here) [295-309] | no binding (tested: not given)
ADYWKCTSCNEMNPP (not fully specified; cysteine pairing not given here, also called Hdm2 library peptide, residues 300-314) [300-314] | no binding (tested: not given)
VYQAGESDTDSFEED (not fully specified, also called Hdm2 library peptide, residues 280-294) [280-294] | no binding (tested: not given)
LRENWLPEDKGKDKG (not fully specified, also called Hdm2 library peptide, residues 325-339) [325-339] | no binding (tested: not given)

These binders were tested against T2, His-tagged Hdm2 210-304 (human, UniProt Q00987 210-304) (assay: SPR (Biacore), His-tagged Hdm2 210-304 captured by anti-His antibody, mouse Arf peptide as analyte, reference cell subtracted).
T2 construct: not shown: thrombin-cleavable poly-His tag from pET28a
Procedure: as §1
(§2) Two libraries of peptides 15 amino acids in length were synthesized based on the sequence of exon 1β of mouse p19^Arf and the entire sequence of human p14^Arf. The sequence for the first peptide in each library corresponded to the first 15 amino acids of the protein sequences. […] This approach yielded two libraries of overlapping peptides spanning mouse p19^Arf residues 1-64 and human p14^Arf residues 1-132. The ability of these peptides to bind Hdm2 fragments was determined using the surface plasmon resonance (SPR) technique with a Biacore 3000 instrument.

T2 sequence (Q00987 210-304): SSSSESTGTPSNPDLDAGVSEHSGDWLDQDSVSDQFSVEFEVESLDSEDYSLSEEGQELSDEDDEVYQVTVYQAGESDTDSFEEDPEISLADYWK

Binder | binding result
KFVRSRRPRTASCAL (not fully specified, also called mouse p19Arf library peptide, residues 26-40) | binds
LVTVRIQRAGRPLQE (not fully specified, also called mouse p19Arf library peptide, residues 6-20) [6-20] | binds
RVFLVKFVRSRRPRT (not fully specified, also called mouse p19Arf library peptide, residues 21-35) | binds
MGRRFLVTVRIQRAG (not fully specified, also called mouse p19Arf library peptide, residues 1-15) [1-15] | binds

Each binder was assayed against T2, His-tagged Hdm2 210-304 (assay: SPR (Biacore), His-tagged Hdm2 210-304 captured by anti-His antibody, human Arf peptide as analyte, reference cell subtracted).
Procedure: as §1, §2

Binder | binding result
PGGLPGHAGGAAPGR (not fully specified) [101-115] | no binding (tested: not given)
RRGAQLRRPRHSHPT (not fully specified, also called human p14Arf library peptide, residues 81-95) [81-95] | no binding (tested: not given)
GAAGRARCLGPSARG (not fully specified, also called human p14Arf library peptide, residues 116-130) [116-130] | no binding (tested: not given)
GHAGGAAPGRGAAGR (not fully specified, also called human p14Arf library peptide, residues 106-120) [106-120] | no binding (tested: not given)
AAAAPRRGAQLRRPR (not fully specified, also called human p14Arf library peptide, residues 76-90) [76-90] | no binding (tested: not given)
VLMLLRSQRLGQQPL (not fully specified, also called human p14Arf library peptide, residues 46-60) [46-60] | no binding (tested: not given)
AAPGRGAAGRARCLG (not fully specified, also called human p14Arf library peptide, residues 111-125) [111-125] | no binding (tested: not given)
HSHPTRARRCPGGLP (not fully specified, also called human p14Arf library peptide, residues 91-105) [91-105] | no binding (tested: not given)
RVFVVHIPRLTGEWA (not fully specified, also called human p14Arf library peptide, residues 21-35) | no binding (tested: not given)
TGEWAAPGAPAAVAL (not fully specified, also called human p14Arf library peptide, residues 31-45) [31-45] | no binding (tested: not given)
RSQRLGQQPLPRRPG (not fully specified, also called human p14Arf library peptide, residues 51-65) [51-65] | no binding (tested: not given)
HDDGQRPSGGAAAAP (not fully specified, also called human p14Arf library peptide, residues 66-80) [66-80] | no binding (tested: not given)
GQQPLPRRPGHDDGQ (not fully specified, also called human p14Arf library peptide, residues 56-70) [56-70] | no binding (tested: not given)
HIPRLTGEWAAPGAP (not fully specified, also called human p14Arf library peptide, residues 26-40) | no binding (tested: not given)
PRRPGHDDGQRPSGG (not fully specified, also called human p14Arf library peptide, residues 61-75) [61-75] | no binding (tested: not given)
RPSGGAAAAPRRGAQ (not fully specified, also called human p14Arf library peptide, residues 71-85) [71-85] | no binding (tested: not given)
AAVALVLMLLRSQRL (not fully specified, also called human p14Arf library peptide, residues 41-55) [41-55] | no binding (tested: not given)
RARRCPGGLPGHAGG (not fully specified, also called human p14Arf library peptide, residues 96-110) [96-110] | no binding (tested: not given)
